The record followed here is publication PMC9530208, “MutS functions as a clamp loader by positioning MutL on the DNA during mismatch repair”.

For series [1], the target named is MutL (Escherichia coli) (UniProt P23367). As to the kind of experiment: smTIRF. The following applies: ATP, no MutS, 10 mM NaCl, 10 nM MutL; single mismatch; smTIRF: 20 mM Tris-HCl pH 7.5, 0.1 mM DTT, 0.2 mg/mL acetylated BSA, 0.0025% P-20, 5 mM MgCl2, 100 mM NaCl (Buffer C), 1 mM ATP or AMP-PNP; NaCl varied …; scale: fraction of DNA molecules with MutL sliding clamp.

Series [2] has as its target MutS;MutL (Escherichia coli;Escherichia coli) (UniProt P23367). Description: smTIRF. The following applies: ATP, 10 nM MutL, single mismatch, smTIRF: 20 mM Tris-HCl pH 7.5, 0.1 mM DTT, 0.2 mg/mL acetylated BSA, 0.0025% P-20, 5 mM MgCl2, 100 mM NaCl (Buffer C), 1 mM ATP or AMP-PNP, NaCl varied …, scale: fraction of DNA molecules with MutL sliding clamp.
The test system of series [3] is MutL(R266E) (Escherichia coli). As to the kind of experiment: smTIRF. The following applies: 30 mM NaCl, 2 nM protein; single mismatch; smTIRF: 20 mM Tris-HCl pH 7.5, 0.1 mM DTT, 0.2 mg/mL acetylated BSA, 0.0025% P-20, 5 mM MgCl2, 100 mM NaCl (Buffer C), 1 mM ATP or AMP-PNP; NaCl varied …; scale: fold fewer binding events than wild-type MutL.
The target in series [4] is MutL(R-E) R162E;R266E;R316E (Escherichia coli) (UniProt P23367). As to the kind of experiment: smTIRF. The following applies: 30 mM NaCl, 2 nM protein; single mismatch; smTIRF: 20 mM Tris-HCl pH 7.5, 0.1 mM DTT, 0.2 mg/mL acetylated BSA, 0.0025% P-20, 5 mM MgCl2, 100 mM NaCl (Buffer C), 1 mM ATP or AMP-PNP; NaCl varied …; scale: fold fewer binding events than wild-type MutL.

The target in series [5] is MutS-bio;MutL (Escherichia coli;Escherichia coli, UniProt P23909;P23367 1-853;1-615, |). Description: smTIRF; ATP; immobilized MutS-bio, MutL co-localization lifetime 29 +/- 2 s; smTIRF: 20 mM Tris-HCl pH 7.5, 0.1 mM DTT, 0.2 mg/mL acetylated BSA, 0.0025% P-20, 5 mM MgCl2, 100 mM NaCl (Buffer C), 1 mM ATP or AMP-PNP; NaCl varied 10-100 mM; Mg2+ omitted for MutL-only binding per reviewer comment; temperature not given. The following applies: protein: recombinant;recombinant; chain copies: 2;2; label: 5'-biotin on both strands; blunt, single G/T mismatch at position 32 of strand 1.

Take 18.4-kb mismatched DNA: the binding signal was 0.25 in series [1]; 0.567 in series [2] (loaded at 10 mM NaCl); 0.073 in series [2] (loaded at 100 mM NaCl); 3 in series [3]; 30 in series [4].

B1: 59-bp mismatched DNA (dsDNA)
DNA 1: CGCGGGTTTTCGCTATTTATGAAAATTTTCCGGTTTAAGGCGTTTCCGTTCTTCTTCGT
DNA 2: ACGAAGAAGAACGGAAACGCCTTAAACTGGAAAATTTTCATAAATAGCGAAAACCCGCG
Take B1: the binding result in series [5] is on record as “binds”.
